Data as given in patent publication US6750046.

B1: Arabidopsis oleosin/hirudin fusion (protein, part only; not given: Factor Xa cleavage junction, Hirudo medicinalis, not shown: small tags and cut ends)
chain, part: MADTARGTHHDIIGRDQYPMMGRDRDQYQMSGRGSDYSKSRQIAKAATAVTAGGSLLVLSSLTLVGTVIALTVATPLLVIFSPILVPALITVALLITGFLSSGGFGIAAITVFSWIYKYATGEHPQGSDKLDSARMKLGSKAQDLKDRAQYYGQQHTGGEHDRDRTRGGQHTT

Biological target: thrombin
Assay: cell-based or functional assay
Conditions: for Antithrombin Units per mg Oil Body Proteins: scale: antithrombin units per mg oil body protein; for Thrombin Units Per Assay: scale: thrombin units per assay

| Molecule | Antithrombin Units per mg Oil Body Proteins | Thrombin Units Per Assay |
| --- | --- | --- |
| hirudin released from the oleosin/hirudin fusion by Factor Xa | 0.55 | 0.0065 |
| B1 | < 0.001 | 0.14 |
